According to patent US20240261333A1 (published 2024):

Columns and labels:
Test in all cases: co-IP with anti-FLAG, N-FLAG B3GNT2, mass spectrometry
[1] = target: T1, GEMIN4 (human, UniProt P57678 1-1058)
T1 construct: also called NP_056536.2 (+2)
T1 sequence (looked up): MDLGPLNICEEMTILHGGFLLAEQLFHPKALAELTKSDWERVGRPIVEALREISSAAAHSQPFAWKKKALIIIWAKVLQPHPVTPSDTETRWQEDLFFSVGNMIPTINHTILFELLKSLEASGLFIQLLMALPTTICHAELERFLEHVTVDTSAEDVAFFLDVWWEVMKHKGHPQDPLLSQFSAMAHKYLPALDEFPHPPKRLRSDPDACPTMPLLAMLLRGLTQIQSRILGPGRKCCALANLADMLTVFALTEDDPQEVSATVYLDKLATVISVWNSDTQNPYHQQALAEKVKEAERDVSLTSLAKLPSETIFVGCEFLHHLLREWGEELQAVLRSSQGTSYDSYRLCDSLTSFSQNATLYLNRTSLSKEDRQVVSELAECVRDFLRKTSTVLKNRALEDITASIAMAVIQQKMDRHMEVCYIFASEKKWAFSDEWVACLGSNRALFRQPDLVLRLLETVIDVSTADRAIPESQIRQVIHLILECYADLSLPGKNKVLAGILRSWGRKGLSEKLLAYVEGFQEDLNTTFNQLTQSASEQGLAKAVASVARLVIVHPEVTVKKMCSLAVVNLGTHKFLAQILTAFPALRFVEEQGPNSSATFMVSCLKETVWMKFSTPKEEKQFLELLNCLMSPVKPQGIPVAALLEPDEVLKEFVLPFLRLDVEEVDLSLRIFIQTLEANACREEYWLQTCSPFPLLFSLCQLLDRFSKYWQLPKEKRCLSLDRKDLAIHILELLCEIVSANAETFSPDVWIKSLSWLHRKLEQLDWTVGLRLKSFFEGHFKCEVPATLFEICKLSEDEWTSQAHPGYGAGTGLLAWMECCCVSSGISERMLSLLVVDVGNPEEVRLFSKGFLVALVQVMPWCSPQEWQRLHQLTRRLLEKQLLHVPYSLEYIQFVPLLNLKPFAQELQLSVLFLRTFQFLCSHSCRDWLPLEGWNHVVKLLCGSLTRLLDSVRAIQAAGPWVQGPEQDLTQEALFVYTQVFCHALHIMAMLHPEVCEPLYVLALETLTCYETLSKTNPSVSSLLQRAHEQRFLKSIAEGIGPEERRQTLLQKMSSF

[2] = target: T2, S100A7 (human, UniProt P31151 2-101)
T2 construct: also called NP_002954.2
T2 sequence (looked up): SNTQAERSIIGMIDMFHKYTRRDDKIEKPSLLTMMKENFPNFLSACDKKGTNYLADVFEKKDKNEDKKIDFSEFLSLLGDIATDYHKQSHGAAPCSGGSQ

[3] = target: T3, EIF3A (human, UniProt Q14152 2-1382)
T3 construct: also called NP_003741.1

[4] = target: T4, GBF1 (human, UniProt Q92538 1-1860, limits assumed)
T4 construct: also called NP_001186307.1 (+13)

[5] = target: T5, DDX3X (human, UniProt O00571 2-662)
T5 construct: also called NP_001180345.1 (+1)

[6] = target: T6, CLTC (human, UniProt Q00610 2-1675, limits assumed)
T6 construct: also called NP_001275582.1 (+2)
T6 sequence (Q00610 2-1675 limits assumed): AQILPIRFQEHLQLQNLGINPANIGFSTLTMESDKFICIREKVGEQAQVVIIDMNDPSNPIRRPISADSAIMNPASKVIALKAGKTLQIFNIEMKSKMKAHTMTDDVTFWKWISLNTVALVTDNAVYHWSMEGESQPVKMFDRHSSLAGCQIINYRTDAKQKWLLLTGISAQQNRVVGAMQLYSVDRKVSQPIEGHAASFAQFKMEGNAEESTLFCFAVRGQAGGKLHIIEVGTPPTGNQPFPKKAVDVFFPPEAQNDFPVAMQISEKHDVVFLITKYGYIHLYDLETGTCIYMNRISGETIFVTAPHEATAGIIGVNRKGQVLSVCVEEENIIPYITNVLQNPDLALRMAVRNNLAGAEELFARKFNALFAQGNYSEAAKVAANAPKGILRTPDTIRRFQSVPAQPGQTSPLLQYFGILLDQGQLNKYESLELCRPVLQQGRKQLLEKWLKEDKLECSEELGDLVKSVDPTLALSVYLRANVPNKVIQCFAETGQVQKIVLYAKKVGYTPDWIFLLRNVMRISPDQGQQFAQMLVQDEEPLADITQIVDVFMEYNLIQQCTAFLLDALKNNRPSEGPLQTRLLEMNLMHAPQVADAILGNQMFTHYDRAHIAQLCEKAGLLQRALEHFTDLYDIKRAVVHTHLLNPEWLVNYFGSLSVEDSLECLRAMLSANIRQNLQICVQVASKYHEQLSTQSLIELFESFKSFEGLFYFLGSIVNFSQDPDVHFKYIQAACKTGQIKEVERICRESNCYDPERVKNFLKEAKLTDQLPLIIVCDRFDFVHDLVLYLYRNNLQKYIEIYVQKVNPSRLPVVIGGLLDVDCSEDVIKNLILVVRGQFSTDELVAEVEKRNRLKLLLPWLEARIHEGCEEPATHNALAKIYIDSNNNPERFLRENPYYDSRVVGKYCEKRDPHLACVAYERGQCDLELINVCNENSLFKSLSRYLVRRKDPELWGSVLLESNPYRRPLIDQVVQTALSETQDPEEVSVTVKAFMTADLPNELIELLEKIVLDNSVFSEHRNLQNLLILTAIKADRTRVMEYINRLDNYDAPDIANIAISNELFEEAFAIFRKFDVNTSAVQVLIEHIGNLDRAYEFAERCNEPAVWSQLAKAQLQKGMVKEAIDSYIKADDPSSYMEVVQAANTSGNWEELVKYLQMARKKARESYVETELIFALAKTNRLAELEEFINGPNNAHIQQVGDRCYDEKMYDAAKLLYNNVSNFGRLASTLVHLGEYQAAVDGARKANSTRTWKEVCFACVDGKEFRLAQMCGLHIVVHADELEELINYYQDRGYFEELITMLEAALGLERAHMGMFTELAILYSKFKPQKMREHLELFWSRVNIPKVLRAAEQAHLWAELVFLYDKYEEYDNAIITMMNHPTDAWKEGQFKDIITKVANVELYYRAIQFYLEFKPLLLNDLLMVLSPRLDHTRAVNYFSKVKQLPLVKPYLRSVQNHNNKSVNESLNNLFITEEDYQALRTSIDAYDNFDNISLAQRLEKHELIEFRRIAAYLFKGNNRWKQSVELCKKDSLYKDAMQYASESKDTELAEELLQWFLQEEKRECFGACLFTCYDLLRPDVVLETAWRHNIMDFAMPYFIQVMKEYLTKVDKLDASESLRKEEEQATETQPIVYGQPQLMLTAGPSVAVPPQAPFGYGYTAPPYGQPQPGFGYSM

T5 sequence (O00571 2-662 limits assumed): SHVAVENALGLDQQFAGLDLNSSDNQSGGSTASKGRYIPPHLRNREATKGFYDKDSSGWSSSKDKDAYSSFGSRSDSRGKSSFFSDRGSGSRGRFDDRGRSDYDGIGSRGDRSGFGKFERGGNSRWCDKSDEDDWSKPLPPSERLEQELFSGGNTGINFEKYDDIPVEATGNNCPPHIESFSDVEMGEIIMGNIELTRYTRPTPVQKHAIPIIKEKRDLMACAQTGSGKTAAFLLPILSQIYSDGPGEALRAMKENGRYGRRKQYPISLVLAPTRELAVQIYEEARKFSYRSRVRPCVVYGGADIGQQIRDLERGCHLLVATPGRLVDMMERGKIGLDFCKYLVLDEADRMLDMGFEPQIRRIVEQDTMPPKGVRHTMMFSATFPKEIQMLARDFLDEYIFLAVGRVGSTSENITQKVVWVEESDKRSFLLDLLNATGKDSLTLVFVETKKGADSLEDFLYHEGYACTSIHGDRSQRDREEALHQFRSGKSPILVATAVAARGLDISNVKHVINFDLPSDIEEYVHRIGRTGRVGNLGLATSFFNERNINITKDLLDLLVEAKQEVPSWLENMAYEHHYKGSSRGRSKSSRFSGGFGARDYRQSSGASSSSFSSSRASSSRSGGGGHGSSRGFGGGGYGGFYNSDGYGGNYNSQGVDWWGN
T4 sequence (Q92538 whole entry): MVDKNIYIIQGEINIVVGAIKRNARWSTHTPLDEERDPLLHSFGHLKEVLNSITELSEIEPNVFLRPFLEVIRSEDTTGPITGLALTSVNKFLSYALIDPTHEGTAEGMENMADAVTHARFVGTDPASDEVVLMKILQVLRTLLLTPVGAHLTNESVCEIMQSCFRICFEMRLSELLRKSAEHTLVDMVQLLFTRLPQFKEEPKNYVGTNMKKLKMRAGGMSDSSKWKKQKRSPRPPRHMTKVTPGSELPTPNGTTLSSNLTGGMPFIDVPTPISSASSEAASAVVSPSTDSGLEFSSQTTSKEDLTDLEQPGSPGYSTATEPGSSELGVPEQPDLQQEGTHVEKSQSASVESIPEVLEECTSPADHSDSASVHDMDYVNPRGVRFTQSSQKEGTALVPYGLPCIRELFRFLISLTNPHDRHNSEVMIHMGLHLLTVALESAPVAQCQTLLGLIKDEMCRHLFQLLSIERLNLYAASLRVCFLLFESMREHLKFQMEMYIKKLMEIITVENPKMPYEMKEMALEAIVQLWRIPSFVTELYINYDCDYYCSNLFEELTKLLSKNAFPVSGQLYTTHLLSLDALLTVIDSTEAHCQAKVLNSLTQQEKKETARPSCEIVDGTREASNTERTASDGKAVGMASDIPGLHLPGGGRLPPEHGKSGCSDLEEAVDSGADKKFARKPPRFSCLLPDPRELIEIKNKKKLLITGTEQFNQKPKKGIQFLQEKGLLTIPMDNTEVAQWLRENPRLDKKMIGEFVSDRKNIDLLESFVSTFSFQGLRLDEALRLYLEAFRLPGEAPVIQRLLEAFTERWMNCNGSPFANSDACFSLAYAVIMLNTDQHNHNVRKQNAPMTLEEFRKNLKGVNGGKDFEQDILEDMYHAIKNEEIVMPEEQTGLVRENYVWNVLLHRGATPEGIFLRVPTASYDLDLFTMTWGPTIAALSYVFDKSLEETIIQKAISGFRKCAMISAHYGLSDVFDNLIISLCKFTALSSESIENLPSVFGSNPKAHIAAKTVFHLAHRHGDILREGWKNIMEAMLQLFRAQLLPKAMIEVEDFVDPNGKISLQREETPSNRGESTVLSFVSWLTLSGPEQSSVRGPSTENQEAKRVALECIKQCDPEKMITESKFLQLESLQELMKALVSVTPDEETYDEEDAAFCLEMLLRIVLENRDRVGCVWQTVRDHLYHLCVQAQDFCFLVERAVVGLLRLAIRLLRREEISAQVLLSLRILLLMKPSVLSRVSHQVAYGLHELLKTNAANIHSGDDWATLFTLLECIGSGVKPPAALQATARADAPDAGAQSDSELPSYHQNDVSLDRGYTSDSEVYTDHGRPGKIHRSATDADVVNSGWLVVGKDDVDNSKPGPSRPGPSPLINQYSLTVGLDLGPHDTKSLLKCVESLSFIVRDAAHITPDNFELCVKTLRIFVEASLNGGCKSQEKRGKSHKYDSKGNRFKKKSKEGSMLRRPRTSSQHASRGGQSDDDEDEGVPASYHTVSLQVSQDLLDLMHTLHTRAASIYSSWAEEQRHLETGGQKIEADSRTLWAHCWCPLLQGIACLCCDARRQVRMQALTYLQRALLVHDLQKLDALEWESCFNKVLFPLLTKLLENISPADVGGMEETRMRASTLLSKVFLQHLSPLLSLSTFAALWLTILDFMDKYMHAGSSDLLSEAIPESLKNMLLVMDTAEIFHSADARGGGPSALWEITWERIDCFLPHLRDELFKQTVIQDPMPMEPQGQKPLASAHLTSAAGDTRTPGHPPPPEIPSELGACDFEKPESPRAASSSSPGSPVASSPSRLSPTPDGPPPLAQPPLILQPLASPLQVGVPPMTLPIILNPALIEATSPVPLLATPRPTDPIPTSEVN

B1: N-terminal FLAG tagged B3GNT2 (enzyme, human, UniProt Q9NY97 1-397, looked up)
chain: MSVGRRRIKLLGILMMANVFIYFIMEVSKSSSQEKNGKGEVIIPKEKFWKISTPPEAYWNREQEKLNRQYNPILSMLTNQTGEAGRLSNISHLNYCEPDLRVTSVVTGFNNLPDRFKDFLLYLRCRNYSLLIDQPDKCAKKPFLLLAIKSLTPHFARRQAIRESWGQESNAGNQTVVRVFLLGQTPPEDNHPDLSDMLKFESEKHQDILMWNYRDTFFNLSLKEVLFLRWVSTSCPDTEFVFKGDDDVFVNTHHILNYLNSLSKTKAKDLFIGDVIHNAGPHRDKKLKYYIPEVVYSGLYPPYAGGGGFLYSGHLALRLYHITDQVHLYPIDDVYTGMCLQKLGLVPEKHKGFRTFDIEEKNKNNICSYVDLMLVHSRKPQEMIDIWSQLQSAHLKC
notes: FLAG-tagged ORF overexpressed in cells; pulled down from lysate with mouse anti-FLAG; also called N-FLAG B3GNT2; N-term FLAG; not shown: N-terminal FLAG tag
For B1, the “co-IP mass spectrometry count” value [1] was 0, the “co-IP mass spectrometry count” value [2] was 3 and the “co-IP mass spectrometry count” value [3] was 2. The “co-IP mass spectrometry count” value [4] was 0.

B2: N-terminal FLAG tagged B3GNT2 (enzyme, human, UniProt Q9NY97 1-397, looked up)
chain: MSVGRRRIKLLGILMMANVFIYFIMEVSKSSSQEKNGKGEVIIPKEKFWKISTPPEAYWNREQEKLNRQYNPILSMLTNQTGEAGRLSNISHLNYCEPDLRVTSVVTGFNNLPDRFKDFLLYLRCRNYSLLIDQPDKCAKKPFLLLAIKSLTPHFARRQAIRESWGQESNAGNQTVVRVFLLGQTPPEDNHPDLSDMLKFESEKHQDILMWNYRDTFFNLSLKEVLFLRWVSTSCPDTEFVFKGDDDVFVNTHHILNYLNSLSKTKAKDLFIGDVIHNAGPHRDKKLKYYIPEVVYSGLYPPYAGGGGFLYSGHLALRLYHITDQVHLYPIDDVYTGMCLQKLGLVPEKHKGFRTFDIEEKNKNNICSYVDLMLVHSRKPQEMIDIWSQLQSAHLKC
notes: FLAG-tagged ORF overexpressed in A375 cells; pulled down from the lysate with mouse anti-FLAG; also called N-FLAG B3GNT2; N-term FLAG; not shown: N-terminal FLAG tag
With B2 the “co-IP/MS count, N-term FLAG” value [5] was 18 and the “co-IP/MS count, N-term FLAG” value [6] was 6.
